Assay: yeast display, Sf9 membrane polyspecificity reagent, FACS + sequencing; frameworks hold sequencing errors
Outline: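 Nanobodies came from a synthetic yeast display library in Saccharomyces cerevisiae BJ5465, induced with galactose for 36–48 hours and stained for 1 hour at 4 °C with 10% biotinylated, detergent-solubilized Sf9 membrane reagent. Cells were enriched on streptavidin microbeads and then FACS-sorted, with low and high (top ~1%) gates set on anti-HA fluorescence for expression and streptavidin fluorescence for reagent binding. Each polyreactivity label reflects the gate a clone came from. Genes were amplified by colony PCR, sequenced by MiSeq 2 × 250 and filtered by CDR length.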

## QVQLVESGGGLVQAGGSLRLSCAASGSTLVYNDMGWYRQAPGKERELVAAISSGASTYADSVKGRFTISRDNAKNTVYLQMNSLKPEDTAVYYCAKDIKLGPVGHSKYHRYDYWGQGTQVTVSS
  polyreactivity (PSR sort gate): low polyreactivity

## QVQLVESGGGLVQAGGSLRLSCAASGSTLVYYDMGWYRQAPGKEREFVAAITISGGRTYYADSVKGRFTISRDNAKNTVYLQMNSLKPEDTAVYYCAADTDRRSPFDYWGQGTQVTVSS
  polyreactivity (PSR sort gate): high polyreactivity

## QVQLVESGGGLVQAGGSLRLSCAASGSTLYDYAMGWYRQAPGKERELVAAINGSGGSTYYADSVKGRFTISRDNAKNTVYLQMNSLKPEDTAVYYCAAATTHRRRYGYWGQGTQVTVSS
  polyreactivity (PSR sort gate): low polyreactivity

## QVQLVESGGGLVQAGGSLRLSCAASGSTLYDYTMGWYRQAPGKERELVAAIRVSGARTFYADSVKGRFTISRDNAKNTVYLQMNSLKPEDTAVYYCAARWYIANPLSPSDYWGQGTQVTVSS
  polyreactivity (PSR sort gate): low polyreactivity

## QVQLVESGGGLVQAGGSLRLSCAASGSTLYGNVMGWYRQAPGKERELVATINRGGSTNYADSVKGRFTISRDNAKNTVYLQMNSLKPEDTAVYYCAARGFAWYYLEDYWGQGTQVTVSS
  polyreactivity (PSR sort gate): low polyreactivity

## QVQLVESGGGLVQAGGSLRLSCAASGSTLYGYAMGWSRQAPGKERELVAAISDSGGNTYYADSVKGRFTISRDNAKNTGYLQMNSLKPEDTAVYYCAAEDIVFPYDYWGQGTQVTVSS
  polyreactivity (PSR sort gate): low polyreactivity

## QVQLVESGGGLVQAGGSLRLSCAASGSTLYHSTMGWYRKAPGKETELVAAITWSGGSTSYADSVKGRFTISRDNAKNTVYLQMNSLKPEDTAVYYCAADDTPDDSDYWGQGTQVTVSS
  polyreactivity (PSR sort gate): low polyreactivity

## QVQLVESGGGLVQAGGSLRLSCAASGSTLYKYAMVWYRQAPGKEREFVAAITRSGGSTYYADSVKGRFTISRDNAKNTVDLQMNSLKPEDTAVYYCAARVRVYSGWLYNYWGQGTQVTVSS
  polyreactivity (PSR sort gate): high polyreactivity

## QVQLVESGGGLVQAGGSLRLSCAASGSTLYRYAMGWYRQAPGKERELVAAISSSGGSTYYADSVKGRFTISRDNAKNTVYLQMNSLKPEDTAVYYCAAYFSTAPKSQYKLDYWGQGTQVTVSS
  polyreactivity (PSR sort gate): high polyreactivity

## QVQLVESGGGLVQAGGSLRLSCAASGSTLYSYAMGWYRQAPGKERELVAAIRRDSGRTYYADSVKGRFTISRDNEKNTVYLQMNSLKPEDTAVYYCAAAYRLGYHKYYYWGQGTQVTVSS
  polyreactivity (PSR sort gate): high polyreactivity

## QVQLVESGGGLVQAGGSLRLSCAASGSTLYVYAMGWYRQAPGKEREFVADISWSGGSTYYADSVKGRFTISRDNAKNTVYLQMNILKPEDTAVYYCNADFTDSYWSRYDYWGQGTQVTVSS
  polyreactivity (PSR sort gate): low polyreactivity

## QVQLVESGGGLVQAGGSLRLSCAASGSTLYVYAMGWYRQAPGKERELVAAITRGSRTSYADSVKGRFTISRDNAKNTVYLQMNSLKPEDTAVYYCNADTILWFLPPQKRDYWGQGTQVTVSS
  polyreactivity (PSR sort gate): low polyreactivity

## QVQLVESGGGLVQAGGSLRLSCAASGSTLYVYTMGWYRQAPGKERELVAGITRGGSTYYADSVKGRFTISRDNAKNTVYLQMNSLKPEDTAVYYCAARSSYREYYWGQGTQVTVSS
  polyreactivity (PSR sort gate): high polyreactivity

## QVQLVESGGGLVQAGGSLRLSCAASGSTLYVYTMGWYRQAPGKERELVATINTSGSRTYYADSLKGRFTISRDIAKNTVYLQMNSLKPEDTAVYYCNARSSRWFYGYNYWGQGTQVTVSS
  polyreactivity (PSR sort gate): high polyreactivity

## QVQLVESGGGLVQAGGSLRLSCAASGSTLYWYAMGWYRQAPGKERELVASISWSGGSTYYADSVKGRFTISRDNAKITVYLQMNSLKPEDTAVYYCDAVRHYHGTWYDYWGEGTQVTVSS
  polyreactivity (PSR sort gate): high polyreactivity

## QVQLVESGGGLVQAGGSLRLSCAASGSTMDYNAMGWYRQAPGKERELVAAITNGGSTTYADSVKGRFTISRDNAKNTVYLQMNSLNPEDTAVYYCAAKWYPQLWFWKFLTYNYWGQGPQVTVSS
  polyreactivity (PSR sort gate): low polyreactivity

## QVQLVESGGGLVQAGGSLRLSCAASGSTNSQYAMGWYRQAPGKERELVAAITTSDGSTNYADSVKGRFTISRDNAKNTVYLQMNSLKPEDTAVYYCNTEYFYFSFGYWGQGTQVTVSS
  polyreactivity (PSR sort gate): low polyreactivity

## QVQLVESGGGLVQAGGSLRLSCAASGSTRYYMGWYRQAPGKEREMVAAISKSGGTTYYADSVKGRFTISRDNAMTTVYLQMTSLKPEDTAVYYCAAQRSRSYTYDYWGQGTQVTVSS
  polyreactivity (PSR sort gate): high polyreactivity

## QVQLVESGGGLVQAGGSLRLSCAASGSTSDENAMGWYRQAPGKERELVASITVSGGSTSYADSVKGRFTISRDNAKNTVYLQMNSLKPEDTAVYYCNTDFGQAHTLSWYEDMDYWGQGTQVTVSS
  polyreactivity (PSR sort gate): low polyreactivity

## QVQLVESGGGLVQAGGSLRLSCAASGSTSDINAMGWYRPAPGKERELVAVITFSGGTTNYADSVKGRFTISRDNAKNTVYLQMNSLKPEDTAVYYCNADTLTTTRRFNPYDYWGQGTQVTVSS
  polyreactivity (PSR sort gate): low polyreactivity

## QVQLVESGGGLVQAGGSLRLSCAASGSTSDINAMGWYRQAPGKERELVAVITFSGGSTNYADSVKGRFTISRDNAKNTVYLQMNSLKPEDTAVYYCSTSGQLYYSRNFDYWGQGTQVTVSS
  polyreactivity (PSR sort gate): low polyreactivity

## QVQLVESGGGLVQAGGSLRLSCAASGSTSDSNAMGWSRQAPGKERELVAAITYSGDSTYYAYSVKGRFTISRDNAKNTVYLQMNSLKPEDTAVYYCATETYPSYEVDYWGQGTQVTVSS
  polyreactivity (PSR sort gate): low polyreactivity

## QVQLVESGGGLVQAGGSLRLSCAASGSTSFLYALGWYRQAPGKERELVAAISRSGGTTYYADSVKGRFTISRDNAKNTVYLQMNSLKPEDTAVYYCNAVGPKRYDYWGQGTQVTVSS
  polyreactivity (PSR sort gate): high polyreactivity

## QVQLVESGGGLVQAGGSLRLSCAASGSTSKGYAMGGYRQAPGKDRELVAAISAGGGRTYYADSVKGRFTISRENAKNTVYLQMNSLKPEDTAVYYCANAGTIYQSPREYWGQGTQVTVSS
  polyreactivity (PSR sort gate): high polyreactivity

## QVQLVESGGGLVQAGGSLRLSCAASGSTSKSYTMGWYRQAPGKERELVAAISYSGVSTYYADSVKGRFTISRDNAKNTVYLQMNSLKPEDTAVYDGAADWVPRQYPGRGGYWGQGTQVTVSS
  polyreactivity (PSR sort gate): high polyreactivity

## QVQLVESGGGLVQAGGSLRLSCAASGSTSLYYAMGWYRQAPGKEREFVAAITWSGGSTYYADSVKGRFTISRDNAKNTVYLQMNSLKPEDTAVYYCAARSYGYSAGYYWGQGTQVTVSS
  polyreactivity (PSR sort gate): high polyreactivity

## QVQLVESGGGLVQAGGSLRLSCAASGSTSPTNVMGWYRQAPGKERELVAAISYSGGRTYYADSVKGRFTISRDNAKNTVYLQMNSLKPEDTAVYYCNAGKRGSTYYYWGQGTQVTVSS
  polyreactivity (PSR sort gate): high polyreactivity

## QVQLVESGGGLVQAGGSLRLSCAASGSTSQINAMGWYRQAPGKERELVAAITWSGDSTYYADSVKGRFTISRDNAKNTVYLQMNSLKPEDTAVYYCAAVSRYFSTYLYDYWGQGTQVTVSS
  polyreactivity (PSR sort gate): low polyreactivity

## QVQLVESGGGLVQAGGSLRLSCAASGSTSRGYAMAWYRQAPGKERELFASITLSGGNTYYADSVKGRFTISRDNAKNTVYLQMNSLKPEDTAVYYCAADDRGSSYGHFTVEYGYWGQGTQVTVSS
  polyreactivity (PSR sort gate): low polyreactivity

## QVQLVESGGGLVQAGGSLRLSCAASGSTSRTYAMGWYRQAPAKERELVAASSSSGGRTYYADSVKGRFTISRDNAKNTVYLQMNSMKPEDTAVYYCNARTYSYRGYNYWGQGTQVTVSS
  polyreactivity (PSR sort gate): high polyreactivity

## QVQLVESGGGLVQAGGSLRLSCAASGSTSSNNAMGWYRQAPGKERELVADISTNGDSTSYADSVKGRFTISRDNAKNTVYLQMNSLKPEDTAVYYCAASTYVTYWEYDFWGQGTQVTVSS
  polyreactivity (PSR sort gate): low polyreactivity

## QVQLVESGGGLVQAGGSLRLSCAASGSTSTLYAMGWYRQAPGKERELVAAISKSGGRTYYADSVKGRFTISRDNAKNTVYLQMNSLKPEDTAVYYCNTVPGRYRTFDYWGQGTQVTVSS
  polyreactivity (PSR sort gate): high polyreactivity

## QVQLVESGGGLVQAGGSLRLSCAASGSTSTRNAMGWYRPAPGKERELVAAITSGGNTYYADSVKGRFTISRDNAKNTVYLQMNSLKPEDTAVYYCAAASPGPWRYDYWGQGTQVTVSS
  polyreactivity (PSR sort gate): high polyreactivity

## QVQLVESGGGLVQAGGSLRLSCAASGSTSVPYAMGWYRQAPGKERELVAAITIGGSTNYADSVKGRFTISRDNAKNTVYLQMNSLKPEDTAVYYCNAVLTQYWKLVRYYGVDYWGQGTQVTVSS
  polyreactivity (PSR sort gate): low polyreactivity

## QVQLVESGGGLVQAGGSLRLSCAASGSTSVQYAMGWYRQAPVKERELVAAIDRSGGSTSYADSVKGRFTISRDNANNTVYLQMNSLKPEDTAVYYCNADPVRSTYSYDYWGQGTQVTVSS
  polyreactivity (PSR sort gate): low polyreactivity

## QVQLVESGGGLVQAGGSLRLSCAASGSTSVVNTMGWYRQAPGKERELVAAISWSGGSTYYADSVKGRFTISRDNAKNTVYLQMNSLKPEDTAVYYCNAQRNFKSITEYDYWGQGTQVTVSS
  polyreactivity (PSR sort gate): high polyreactivity

## QVQLVESGGGLVQAGGSLRLSCAASGSTSYLYPMGWDRQAPGKERELVAAISWNGGSTYYADSVKGRFTISLDNAKNTVYLQMNSLKPEDTAVYYCAASVHATSFSGGRHWFKLYYWGQGTQVTVSS
  polyreactivity (PSR sort gate): high polyreactivity

## QVQLVESGGGLVQAGGSLRLSCAASGSTSYNAMGWYRQAPGKERELVAAISDGGGSTYYADSVKGRFTISRDNAKNTVYLQMISLKPEDTAVYYCAADTITGDGYWAQGTQVTVSS
  polyreactivity (PSR sort gate): low polyreactivity

## QVQLVESGGGLVQAGGSLRLSCAASGSTSYNYVMGWYRQAPGKERELVAAISFTDGTTYYADSVKGRFTISRDNAKNTVYLQMNSLKPEDTAVYYCAAGYTGYTYTEMDYWGQVTQVTVSS
  polyreactivity (PSR sort gate): low polyreactivity

## QVQLVESGGGLVQAGGSLRLSCAASGSTSYSYMGWYRQAPGKERELVAAIDESGGSTYYADSVKGRFTISRDNAKNTVYLQMNSLKPEDTAVYYCNRRYGRSYRWGYGYWGQGTQVTVSS
  polyreactivity (PSR sort gate): low polyreactivity

## QVQLVESGGGLVQAGGSLRLSCAASGSTSYVYAMGWYRQAPGKERELVAAISGSGGRTYYADSVKGRFTISRDNAKNTVYLQMNSLKPEDTAVYYCNALPRPSYPFDYWGQGTQVTVSS
  polyreactivity (PSR sort gate): high polyreactivity

## QVQLVESGGGLVQAGGSLRLSCAASGSTVEYNAMGGYRPATGKERELVAAITSGGSTTYADSVKGRFTISRDNAKNTVYLQMNSLKPEDTAVYYCAAVGRRVSAWYYYWGQGTQVTVSS
  polyreactivity (PSR sort gate): high polyreactivity

## QVQLVESGGGLVQAGGSLRLSCAASGSTVNKYAMGWYRHAPGKERELVAAITTSGGRTYYADSVKGRFTISRDNAKNTVYLQMNSLKPEDTAVYYCNARIRRNYAYPKGESWGQGTQVTVSS
  polyreactivity (PSR sort gate): high polyreactivity

— the nanobody polyreactivity screen of Harvey et al. (2022)
